Patent US20040071656A1 (published 2004)

How the values were obtained:
[1] = molecular target: T1, Recombinant human His6-tagged Hsp70 (human, UniProt P0DMV8 2-641); experiment: titration of peptide C in the GST-CD40 pull-down of His6-Hsp70-ADP, quantified immunoblot
T1 construct: mature; also called His6-Hsp70; human Hsp70
Description: For binding assays with recombinant Hsp70 and its domains, 3 μM His6-Hsp70 or its His6-tagged domains were incubated with 2 mM ATP, 2 mM ADP or 2 mM ADP and 28 μM peptide C in 50 μl binding buffer (10 mM MOPS/KOH, pH 7.2, 150 mM KCl and 3 mM MgCl2) for 30 min at 37° C. In competition experiments binding was probed with either a 10-fold excess of Hsp70, the two domains, or DnaK, or with a 5-fold excess of Hip or Bag 1 for 10 min at 0° C. To this end, Hsp70, N70, C70 and DnaK were preincubated with ADP, ATP and peptide C as described above. For comparison of CD40 binding of Hsp70 and its N-terminal domain, Hsp70 was preincubated in the presence or absence (mock treatment) of a 30-fold molar excess of peptide C. 3 μM of GST or GST-CD40 was added to the samples and incubated for 20 min at 16° C. For titration of peptide C, 5- to 50-fold excess of peptide C (15-150 μM) was added to the preincubation of Hsp70. Thereafter the samples were combined with 20 μl of 1% BSA-treated Glutathione Sepharose 4 Fast Flow and incubated in the presence of 2 mM DTT for another 20 min at 16° C. […] 10 μl of the eluates were subjected to SDS-PAGE and analyzed by immunoblotting using a Penta-His-antibody (Quiagen). Blot signals were quantified by Quantity One (Biorad).

[2] = molecular target: T2, Biotinylated recombinant Hsp70 (human, UniProt P0DMV8 2-641); experiment: fluorescence microscopy on LPS-stimulated ANA1 cells
T2 construct: mature; also called biotinylated Hsp70; biotin-labeled Hsp70; not shown: His tag
Description: ANA-1 cells were cultured in VLE-RPMI 1640 (Biochrom), supplemented with 10% FCS, 2 mM L-glutamine and antibiotics. For fluorescence microscopy, ANA1 cells were either stimulated with LPS (20 μg/ml, Sigma, Germany), or kept in an LPS-free medium (mock treatment) for 7 h. After stimulation, cells were harvested and incubated with 100 nM biotinylated Hsp70, biotinylated GST, or Hsp70/peptide C-biotin complex for 30 min at 0° C. in VLE-RPMI 1640. After incubation cells were processed for staining with streptavidin-TRITC (Sigma, Germany), fixed with paraformaldehyde and analyzed by fluorescence microscopy (Axiovert 35, Zeiss) as described (Sondermann et al., 2000). […] Twenty-four h post-transfection cells were incubated with 250 nM biotinylated Hsp70, biotinylated GST or Hsp70/peptide C-biotin complex for 30 min at 0° C. in DMEM, fixed, stained with streptavidin-TRITC (Sigma, Germany), and analyzed by fluorescence microscopy as described (Sondermann et al., 2000, idem). […] Stably transfected cell lines were analyzed by immunoblotting for CD40 expression using an anti-CD40 antibody (CSA180, Stressgen). […]

T2 sequence (P0DMV8 2-641): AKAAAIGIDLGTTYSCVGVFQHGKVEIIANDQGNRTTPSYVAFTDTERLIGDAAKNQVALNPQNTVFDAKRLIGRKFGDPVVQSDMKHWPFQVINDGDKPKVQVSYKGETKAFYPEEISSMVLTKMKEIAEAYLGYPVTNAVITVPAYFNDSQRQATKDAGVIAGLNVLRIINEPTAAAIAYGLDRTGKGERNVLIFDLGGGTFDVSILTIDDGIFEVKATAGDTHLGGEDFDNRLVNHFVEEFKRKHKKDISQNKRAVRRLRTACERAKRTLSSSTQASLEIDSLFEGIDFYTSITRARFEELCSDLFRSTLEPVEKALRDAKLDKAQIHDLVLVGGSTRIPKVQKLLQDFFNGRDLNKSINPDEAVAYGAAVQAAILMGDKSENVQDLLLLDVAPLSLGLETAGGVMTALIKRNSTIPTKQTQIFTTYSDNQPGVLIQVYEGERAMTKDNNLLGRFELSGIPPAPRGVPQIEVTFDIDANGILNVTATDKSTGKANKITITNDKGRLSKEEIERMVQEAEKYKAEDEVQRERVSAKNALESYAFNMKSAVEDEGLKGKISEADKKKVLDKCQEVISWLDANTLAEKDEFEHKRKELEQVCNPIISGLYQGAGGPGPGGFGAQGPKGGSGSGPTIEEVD
T1 sequence (P0DMV8 2-641): as above

B1: Peptide C (GCEVFGLGWRSYKH) (peptide)
peptide: GCEVFGLGWRSYKH
notes: Synthetic Hsp70 substrate peptide; also called peptide substrate; substrate peptide
ka (saturable effect of peptide C on binding of Hsp70-ADP to CD40) [1]: ~30 µM

B2: Endogenous CD40 of LPS-stimulated murine ANA1 macrophage cells (receptor, UniProt P27512 20-289, looked up)
chain: LGQCVTCSDKQYLHDGQCCDLCQPGSRLTSHCTALEKTQCHPCDSGEFSAQWNREIRCHQHRHCEPNQGLRVKKEGTAESDTVCTCKEGQHCTSKDCEACAQHTPCIPGFGVMEMATETTDTVCHPCPVGFFSNQSSLFEKCYPWTSCEDKNLEVLQKGTSQTNVICGLKSRMRALLVIPVVMGILITIFGVFLYIKKVVKKPKDNEILPPAARRQDPQEMEDYPGHNTAAPVQETLHGCQPVTQEDGKESRISVQERQVTDSIALRPLV
notes: whole, on cells
binding result [2]: binds
